Experimental findings from patent US20180282403A1, “AGENTS FOR REDUCING THE ACTIVITY OF GDF15” (GENAGON THERAPEUTICS AB, priority 2015, published 2018) are described below.

Common to all, as to format: cell-based
In assay [1] the target is T1, CLPTM1 (Homo sapiens, UniProt O96005).
T1 construct: endogenous in cells; host or cells: NK-92 cells
T1 sequence (O96005 1-669): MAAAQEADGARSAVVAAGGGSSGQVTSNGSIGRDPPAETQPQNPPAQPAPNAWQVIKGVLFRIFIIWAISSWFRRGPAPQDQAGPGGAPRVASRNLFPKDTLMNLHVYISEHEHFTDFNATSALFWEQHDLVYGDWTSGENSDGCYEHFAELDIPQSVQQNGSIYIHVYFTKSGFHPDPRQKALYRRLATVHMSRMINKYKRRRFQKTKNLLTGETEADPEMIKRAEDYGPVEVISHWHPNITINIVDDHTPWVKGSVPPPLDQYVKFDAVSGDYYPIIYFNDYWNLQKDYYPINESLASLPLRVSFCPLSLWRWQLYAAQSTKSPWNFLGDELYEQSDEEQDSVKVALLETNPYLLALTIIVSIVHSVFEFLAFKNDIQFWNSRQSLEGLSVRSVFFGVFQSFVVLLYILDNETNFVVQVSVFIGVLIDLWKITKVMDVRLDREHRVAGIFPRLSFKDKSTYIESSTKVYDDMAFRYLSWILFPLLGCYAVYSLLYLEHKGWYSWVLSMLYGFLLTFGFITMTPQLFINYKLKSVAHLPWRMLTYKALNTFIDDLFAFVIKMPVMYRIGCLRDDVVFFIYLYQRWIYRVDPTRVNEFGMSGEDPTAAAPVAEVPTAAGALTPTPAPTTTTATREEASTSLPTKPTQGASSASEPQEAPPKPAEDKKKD
Nature of the assay: In situ PLA detection of the CLPTM1-TGFBRII complex in NK cells. To be noted: GDF15 treatment; FIG. 15. The text has this: It was not known whether TGFBRI localised with CLPTM1 independently from the corresponding Type II receptor TGFBRII, or whether the TGFBRI-TGFBRII heterocomplex associated with CLPTM1 upon GDF15 stimulation. In order to determine this, a second in situ PLA assay was developed, using antibodies towards TGFBRII in concert with CLPTM1 antibodies from another species. […] (FIG. 15)

For assay [2], the target named is T1, CLPTM1. Nature of the assay: Detection of NKG2D in NK-92 cells after extended GDF15 stimulation. To be noted: overnight GDF15 stimulation, FIG. 21A. The text has this: Based upon literature, the expression of CLPTM1 in immune cells such as CD8+T-lymphocytes and NK-92 cells, and the GDF15 induced proximity of CLPTM1 to TGFBRI-TGFBRII (through which TGFB1 signals), we investigated whether blockade of CLPTM1 by antibodies could affect the levels of the immune effector NKG2D in NK-92 cells that had been subjected to extended stimulation with GDF15. […] The decrease in NKG2D was reversed in NK-92 cells that had been pre-treated with a binding agent capable of binding to CLPTM1 (an antibody) prior to GDF15 stimulation (FIG. 21B). […] We propose that this may increase their cytotoxicity.

A further assay relates to CD14+ cells. Nature of the assay: Cytokine secretion by LPS-stimulated CD14+ cells (Proseek assay). Particulars: LPS stimulated CD14+ cells incubated with GDF15. The procedure: CD14+ cells where isolated and cultured in the presence or absence of GDF15 in a LPS stimulated culture.
Buffy coat cell suspension or heparinized blood samples were diluted with sterile, room temperature PBS. Peripheral blood samples are diluted 1:1, whereas buffy coats are diluted to a final volume of 120 ml (in a standard buffy coat this will result in slightly greater dilution than 1:1). The diluted cell suspension was layered onto Ficoll Paque PLUS. For one buffy 4×15 ml aliquots are used (30 ml of diluted cell suspension/tube). Cells were centrifuged at 400×g for 30 min at room temperature and transferred to a new 50 ml tube. Cells were washed once and resuspended in 20 ml PBS.
Mononuclear cell suspension was pelleted by centrifugation. Cells were resuspended in Stemcell buffer at a concentration of 10^8 cells/ml and transferred to a round bottom 14 ml tube. EasySep Positive Selection cocktail at was added at 100 μl/ml cells, mixed by gentle pipetting, and incubated at room temperature for 15 min. 50 μl EasySep Magnetic Nanoparticles per 1 ml cells were added and mixed, and incubated at room temperature for 10 min. Stemcell recommended medium was added to bring the cell suspension to a total volume of 5 ml and mixed by gently pipetting. The tube (without cap) was placed into the magnet and set aside for 5 min. After 5 minutes the supernatant was discarded. CD14+ labelled cells will remain inside the tube. The tube was removed from the magnet and add 5 ml Stemcell recommended medium was added and mixed by gently pipetting. The tube (without cap) was placed into the magnet and set aside for 5 min. The was step was repeated before the cells were resuspended in 5 ml complete RPMI medium. 50 μl of the CD14+ cell suspension was removed and counted to determine total cell number after dilution in Trypan blue solution and mounting on Fast Read 102 Counting Slides.
Adjust CD14+ cell suspension volume to a concentration of 0.833×10^6 cells/ml in complete RPMI medium. 300 μl of cell suspension is added to wells in a 48 well plate well (0.25×10^6 cells per well), and allowed to adhere for 90 min in an incubator at 37° C. Non-adherent cells were removed by removal of the supernatant after gently pipetting the medium. Cells were washed once with 300 μl pre-warmed complete RPMI medium and the medium aspirated off. 300 μl pre-warmed complete RPMI medium was added to each well and the cells were incubate overnight (20-24 h) in a cell incubator at 37° C.
A 17× stock solution of the desired GDF15 modulatory substances was diluted in complete RPMI. (20 μl of substance/well assayed). 20 μl of modulatory substance or medium/carrier (negative control) was added to each well and mixed by gentle pipetting. Cells were incubated for 30 min in a cell incubator at 37° C. A 17×GDF15 solution was prepared by diluting a 100 μg/ml stock solution to a concentration of 8.5 μg/ml (final concentration in culture 0.5 μg/ml) in complete RPMI. 20 μl of diluted GDF15 was added per well, and incubated overnight (18-20 h) in a cell incubator at 37° C.
A 18×LPS solution was prepared by diluting the LPS stock solution to a concentration of 18 ng/ml (final concentration in culture 1 ng/ml) in complete RPMI. 20 μl of LPS or medium (negative control) was added to each well and mixed by gentle pipetting. […]
Secreted proteins from cell cultures where quantified using multiplexed proximity extension assay, Proseek (Assarsson E et al PlosOne 2014) by Olink Proteomics AB (Uppsala Sweden). […]

For “GDF15: Growth and differentiation factor 15, from mammalian source or recombinant from E. coli (Abcam, Biovision)”, the “CLPTM1 proximity to TGFBRII” value with CLPTM1 [1] is “induced CLPTM1 proximity to TGFBRII”. The “levels of detectable NKG2D” value with CLPTM1 [2] is “low levels of detectable NKG2D”. In addition, in the assay on CD14+ cells, the “LPS response secretion of IL12” value is “reduced” and the “LPS response secretion of TNF” value is listed as “reduced”.
